Tests used:
Aβ3pE-42 = Aβ3pE-42 (pyroglutamate (pE) at the N-terminus, residue 3 of Aβ); experiment: sandwich ELISA, BAMB31_1 coated, HRPO-labeled C-terminal antibody for detection
human Aβ1-40 peptide = human Aβ1-40 peptide (human); experiment: sandwich ELISA, BAMB31_1 coated, JRF/cAβ40/28-HRPO detection
rodent Aβ3pE-40 = molecular target: T1, rodent Aβ3pE-40 (rodent, pyroglutamate (pE) at the N-terminus, residue 3 of Aβ); experiment: as above
T1 peptide: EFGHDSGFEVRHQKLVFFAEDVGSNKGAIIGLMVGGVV

human AβpE11-40 = molecular target: T2, human AβpE11-40 (human, pyroglutamate (pE) at the N-terminus, residue 11 of Aβ); experiment: as above
T2 construct: also called Aβ11pE-40
T2 peptide: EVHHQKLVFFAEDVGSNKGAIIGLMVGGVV

AβpE11-42 = molecular target: T3, AβpE11-42 (human, pyroglutamate (pE) at the N-terminus, residue 11 of Aβ); experiment: sandwich ELISA, BAMB31_1 coated, JRF/cAβ42/26-HRPO detection
T3 construct: also called Aβ11pE-42
T3 peptide: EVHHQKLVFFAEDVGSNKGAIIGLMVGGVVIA

human Aβ1-42 = human Aβ1-42 (human); experiment: as above

- binding result (Aβ3pE-42): binds
- binding result (human Aβ1-40 peptide): no binding (tested: 10 ng/mL)
- binding result (rodent Aβ3pE-40): no binding (tested: 10 ng/mL)
- binding result (human AβpE11-40): no binding (tested: 10 ng/mL)
- binding result (AβpE11-42): no binding (tested: 10 ng/mL)
- binding result (human Aβ1-42): no binding (tested: 10 ng/mL)
B1: BAMB31_1 (antibody, mouse IgG1, V domains shown)
VH: EIQLQQSGPELVKPGTSVKVSCKASGHVFTSYDMYWVKQSHGKSLEWIGYIDSDNGDTSYNQKFKGKATLTVDKSSSTAYMHLNSLTSEDSAVYYCAYYRYAMDYWGQGTSVTVSS
VL: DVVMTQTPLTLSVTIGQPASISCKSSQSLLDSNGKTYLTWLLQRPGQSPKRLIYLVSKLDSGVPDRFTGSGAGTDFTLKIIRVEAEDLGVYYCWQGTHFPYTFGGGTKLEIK
notes: Hybridoma antibody

From patent publication US20220177560A1 (Janssen / Centocor, published 2022)
